Measurements taken from patent US20230406935A1 (F STAR THERAPEUTICS, published 2023).
Positions count from the first letter of the chain named.

Columns and labels:
Assay in all cases: cell-based or functional assay
[1] = target: T1, Human PD-L1 expressed on cells (human, UniProt Q9NZQ7 19-290)
[2] = target: T1, Human PD-L1 expressed on cells; remark: listed apart in the source
[3] = target: T1, Human PD-L1 expressed on cells; remark: listed apart in the source

T1 sequence (Q9NZQ7 19-290 limits assumed): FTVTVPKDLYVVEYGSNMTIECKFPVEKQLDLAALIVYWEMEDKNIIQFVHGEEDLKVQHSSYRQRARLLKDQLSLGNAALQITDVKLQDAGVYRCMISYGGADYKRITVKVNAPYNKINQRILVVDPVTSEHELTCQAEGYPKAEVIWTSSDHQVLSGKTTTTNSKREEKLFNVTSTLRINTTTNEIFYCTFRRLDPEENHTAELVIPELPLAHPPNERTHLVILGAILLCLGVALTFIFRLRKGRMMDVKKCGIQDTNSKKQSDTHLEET

B1: Fcab FS17-33-116 (designed binder)
chain: TCPPCPAPELLGGPSVFLFPPKPKDTLMISRTPEVTCVVVDVSHEDPEVKFNWYVDGVEVHNAKTKPREEQYNSTYRVVSVLTVLHQDWLNGKEYKCKVSNKALPAPIEKTISKAKGQPREPQVYTLPPSRDESGYWVSLTCLVKGFYPSDIVVEWESNGEPQYWAKTTPPVLDSDGSFFLYSKLTVSNWRWQMDDFSCSVMHEALHNHYTQKSLSLSPGK
With B1 the “SEB assay EC50” value [1] was 0.0753 nM.

B2: FS17-33-449AA/HelD1.3 mock mAb^2 (bispecific antibody, human IgG1, kappa, L234A L235A)
heavy: QVQLQESGPGLVRPSQTLSLTCTVSGSTFSGYGVNWVRQPPGRGLEWIGMIWGDGNTDYNSALKSRVTMLVDTSKNQFSLRLSSVTAADTAVYYCARERDYRLDYWGQGSLVTVSSASTKGPSVFPLAPSSKSTSGGTAALGCLVKDYFPEPVTVSWNSGALTSGVHTFPAVLQSSGLYSLSSVVTVPSSSLGTQTYICNVNHKPSNTKVDKKVEPKSCDKTHTCPPCPAPEAAGGPSVFLFPPKPKDTLMISRTPEVTCVVVDVSHEDPEVKFNWYVDGVEVHNAKTKPREEQYNSTYRVVSVLTVLHQDWLNGKEYKCKVSNKALPAPIEKTISKAKGQPREPQVYTLPPSRDETGYWVSLTCLVKGFYPSDIAVEWESNGEPQYWAKTTPPVLDSDGSFFLYSKLTVSNWRWQLDDVFSCSVMHEALHNHYTQKSLSLSPGK
light: DIQMTQSPASLSASVGETVTITCRASGNIHNYLAWYQQKQGKSPQLLVYNAKTLADGVPSRFSGSGSGTQYSLKINSLQPEDFGSYYCQHFWSTPRTFGGGTKLEIKRTVAAPSVFIFPPSDEQLKSGTASVVCLLNNFYPREAKVQWKVDNALQSGNSQESVTEQDSKDSTYSLSSTLTLSKADYEKHKVYACEVTHQGLSSPVTKSFNRGEC
In the case of B2, the “SEB assay (IFNγ release) EC50” value [2] is reported as 0.55 nM.

B3: FS17-33-449/HelD1.3 mock mAb^2 (without LALA) (bispecific antibody, human IgG1, kappa)
heavy: B2 heavy with A233L, A234L
light: B2 light
For B3, the “SEB assay (IFNγ release) EC50” value [2] was 0.644 nM.

B4: FS17-33-451/HelD1.3 mock mAb^2 (without LALA) (bispecific antibody, human IgG1, kappa)
heavy: B2 heavy with A233L, A234L, T357E
light: B2 light
For B4, the “SEB assay (IFNγ release) EC50” value [2] was 0.852 nM.

B5: FS17-33-451AA/HelD1.3 mock mAb^2 (bispecific antibody, human IgG1, kappa, L234A L235A)
heavy: B2 heavy with T357E
light: B2 light
notes: also called F17-33-451AA/HelD1.3; F17-33-451AA/HELD1.3
In the case of B5, the “SEB assay (IFNγ release) EC50” value [2] is reported as 1.12 nM.

B6: FS17-33-451AA/MSL109 mock mAb^2 (bispecific antibody, human IgG1, kappa, L234A L235A)
heavy: EEQVLESGGGLVKPGGSLRLSCAASGFTFSPYSVFWVRQAPGKGLEWVSSINSDSTYKYYADSVKGRFTISRDNAENSIFLQMNSLRAEDTAVYYCARDRSYYAFSSGSLSDYYYGLDVWGQGTTVIVSSASTKGPSVFPLAPSSKSTSGGTAALGCLVKDYFPEPVTVSWNSGALTSGVHTFPAVLQSSGLYSLSSVVTVPSSSLGTQTYICNVNHKPSNTKVDKKVEPKSCDKTHTCPPCPAPEAAGGPSVFLFPPKPKDTLMISRTPEVTCVVVDVSHEDPEVKFNWYVDGVEVHNAKTKPREEQYNSTYRVVSVLTVLHQDWLNGKEYKCKVSNKALPAPIEKTISKAKGQPREPQVYTLPPSRDEEGYWVSLTCLVKGFYPSDIAVEWESNGEPQYWAKTTPPVLDSDGSFFLYSKLTVSNWRWQLDDVFSCSVMHEALHNHYTQKSLSLSPGK
light: DIVMTQSPLSLSVTPGEPASISCRSSQSLLHTNGYNYLDWYVQKPGQSPQLLIYLASNRASGVPDRFSGSGSGTDFTLKISRVETEDVGVYYCMQALQIPRTFGQGTKVEIKRTVAAPSVFIFPPSDEQLKSGTASVVCLLNNFYPREAKVQWKVDNALQSGNSQESVTEQDSKDSTYSLSSTLTLSKADYEKHKVYACEVTHQGLSSPVTKSFNRGEC
notes: also called FS17-33-451AA/MSL109 (parent 2)
B6 was tested, and the “SEB EC50” value [3] was 1.11 nM.

B7: FS17-33-548AA/MSL109 (bispecific antibody, human IgG1, kappa, L234A L235A)
heavy: B6 heavy with D432G
light: B6 light
With B7 the “SEB EC50” value [3] was 3.21 nM.

B8: FS17-33-539AA/MSL109 (bispecific antibody, human IgG1, kappa, L234A L235A)
heavy: B6 heavy with E371T, D432G, H445R
light: B6 light
B8 was tested, and the “SEB EC50” value [3] was 0.97 nM.
